Reference: patent publication US20190352405A1 (I MAB BIOPHARMA US, published 2019)

Columns and labels:
[1] = biological target: T1, PD-L1 expressed on Raji cells (PDL1-Raji cells) (UniProt Q9NZQ7 19-290, limits assumed); test: FACS on PDL1-Raji cells, Alexa 488 anti-human IgG secondary antibody, MFI; the EC50 table has no unit, nM is taken from the x axis (Log [Conc.] / nM)
T1 construct: whole, on cells; also called mammalian expressed PD-L1
Experimental: After washing by FACS buffer (PBS with 2% FBS), the Alexa 488-anti-human IgG antibody was added to each well and incubated at RT for 1 hour. The MFI of Alexa 488 were evaluated by FACSAriaIII.

[2] = biological target: T2, recombinant PD-L1 protein (human PD-L1-his taq) (human, UniProt Q9NZQ7 19-238); test: SPR (Biacore T200), antibody captured by anti-human Fc on CM5 chip, PD-L1-his as analyte
T2 construct: also called human PD-L1-his taq protein; his-PDL1; not shown: his tag
Experimental: A series of dilutions of human PD-L1-his taq protein were injected over captured antibody for 3 mins at a flow rate of […]. The antigen was allowed to dissociate for 900s. All the experiments were carried out on a Biacore T200. Data analysis was carried out using Biacore T200 evaluation software.

[3] = biological target: T3, IL7 receptor (IL7R) on human primary CD4+ T cells (human, UniProt P16871 21-459); test: FACS on human primary CD4+ T cells, 4 °C for 30 min, PE anti-human Fc secondary antibody, MFI; fit value printed for a nearly flat control curve; the EC50 column has no unit, nM is taken from the x axis (Log [Conc.] / nM)
T3 construct: whole, on cells; Native receptor on cells; also called surface IL7R; CD127 (IL7Ra)
T3 sequence (looked up): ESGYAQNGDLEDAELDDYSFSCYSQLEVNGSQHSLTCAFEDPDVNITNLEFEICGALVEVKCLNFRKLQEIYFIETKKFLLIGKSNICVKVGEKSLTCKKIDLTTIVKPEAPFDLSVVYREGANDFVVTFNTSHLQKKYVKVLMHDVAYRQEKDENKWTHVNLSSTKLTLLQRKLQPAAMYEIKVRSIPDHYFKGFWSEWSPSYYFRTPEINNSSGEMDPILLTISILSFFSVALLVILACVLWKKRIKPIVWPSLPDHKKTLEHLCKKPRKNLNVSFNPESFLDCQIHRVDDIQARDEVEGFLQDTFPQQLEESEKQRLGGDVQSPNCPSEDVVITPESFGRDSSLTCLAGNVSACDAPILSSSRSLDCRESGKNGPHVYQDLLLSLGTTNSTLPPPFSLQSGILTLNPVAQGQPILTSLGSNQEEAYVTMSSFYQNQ
Experimental: PE-conjugated anti-human Fc secondary antibody were used to detect the fusion molecules that bound to the IL7R of CD4⁺ T cells by FACS. […] For ligation-mediated receptor internalization assay, human primary CD4⁺ T cells were cocultured with fusion molecules at 37° C. for 15 mins. PE-cy7-conjugated-anti-CD127 (IL7Ra) antibody was used to detect the surface IL7R by FACS.

T2 sequence (Q9NZQ7 19-238 limits assumed): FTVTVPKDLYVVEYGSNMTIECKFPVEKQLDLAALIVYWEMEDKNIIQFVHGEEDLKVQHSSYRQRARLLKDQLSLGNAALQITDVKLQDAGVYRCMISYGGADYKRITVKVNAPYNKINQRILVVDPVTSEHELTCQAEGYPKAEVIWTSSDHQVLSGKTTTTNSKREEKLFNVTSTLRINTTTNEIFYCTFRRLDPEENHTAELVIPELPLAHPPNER
T1 sequence (Q9NZQ7 19-290 limits assumed): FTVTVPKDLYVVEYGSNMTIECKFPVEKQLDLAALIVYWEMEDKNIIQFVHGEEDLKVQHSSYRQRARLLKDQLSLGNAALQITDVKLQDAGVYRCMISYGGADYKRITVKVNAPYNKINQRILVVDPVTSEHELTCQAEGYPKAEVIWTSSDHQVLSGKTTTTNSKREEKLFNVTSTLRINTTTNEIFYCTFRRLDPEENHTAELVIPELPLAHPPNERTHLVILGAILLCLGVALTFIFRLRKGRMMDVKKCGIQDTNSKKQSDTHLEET

EC50 [1]: 7.99 nM
Kd [2]: 2.09 nM
koff [2]: 0.000178 s⁻¹
kon [2]: 85000 M⁻¹ s⁻¹
EC50 [3]: 35 nM
B1: Anti-PDL1 mAb (antibody, V domains shown)
VH: EVQLVESGGGLVQPGGSLRLSCAASGFTFSSYDMSWVRQAPGKSLEWVATISDAGGYIYYSDSVKGRFTISRDNAKNSLYLQMNSLRDEDTAVYICAREFGKRYALDYWGQGTTVTVSS
VL: DIQMTQSPSSLSASVGDRVTITCKASQDVTPAVAWYQQKPGKAPKLLIYSTSSRYTGVPSRFSGSGSGTDFTFTISSLQPEDIATYYCQQHYTTPLTFGQGTKLEIK
notes: also called anti-PDL1 monoclonal antibody; anti-PDL1 antibody
